Values of other authors, collected in publication PMC12135873.

Target: Cys106 (UniProt position 106, LIAAICAGPTA)

DJ-1 (PARK7, Parkinson disease protein 7) (Homo sapiens)
pKa: 5.4
